Experimental data as given in paper PMC6602974 (2019).

B1: CH505 transmitted founder gp120 (domain or fragment)
chain: not shown

Experiments:
[1] = molecular target: B1; assay: SPR
DH796.1 = assay: SPR

| Binder | Kd [1] [nM] | Kd (DH796.1) [nM] |
| --- | --- | --- |
| DH753 monoclonal antibody (IgG1) (antibody, V domains shown) VH: EVHLVESGGGLVQPGGSLRLSCEVSGLTFSNSWMSWVRQAPGKGLEWVGFIKTKADGGTAAYAESVKGRFTISRDDSKNTVFLQMKSLKTEDTAVYYCQGAVVISHEYIEIWGQGALVTVSS VL: QSVLTQPPSASEAARKSVTISCSGGSSNIGDDSVSWYQQVPGTAPKLLIYYNDRRASGVSDRFSGSKSGTSASLAINGLQSEDEADYYCAAWDDSLSAYIFGSGTRLTVL | 1.2 |  |
| DH727.2 monoclonal antibody (IgG1) (antibody, V domains shown) VH: QVQLVQSGAEVKKPGASVKLSCKASGNTFSIYGISWVRQAPGQGLEWMGGIIPPAGLTNYVQRFQGRVTITADTSTTTVYMELSSLTSEDTAVYYCAIRIGRGFDYWGQGVLVTVSS VL: DIVMTQSPLSLPVTPGETASISCRSSQSLLDSEDGNTYLEWYLQKPGQSPQALIYEASNRASGVPDRFSGSGSDTDFTLKISRVEAEDVGIYYCMQTIEYPFTFGPGTKVDIK | 10.9 |  |
| B1 |  | 253 |
